Experimental data: patent publication US11124558B2, “Use of tetranectin and peptide agonists to treat inflammatory diseases” (The Feinstein Institutes for Medical Research, priority 2017, dated 2021)

System: HMGB1 release
Test: LPS/SAA-induced HMGB1 release, summary statement (cells not specified)
Assay type: cell-based

B1: tetranectin (protein, listed as Homo sapiens)
chain: EPPTQKPKKIVNAKKDVVNTKMFEELKSRLDTLAQEVALLKEQQALQTVCLKGTKVHMKCFLAFTQTKTFHEASEDCISRGGTLGTPQTGSENDALYEYLRQSVGNEAEIWLGLNDMAAEGTWVDMTGARIAYKNWETEITAQPDGGKTENCAVLSGAANGKWFDKRCRDQLPYICQFGIV
  attenuation of LPS/SAA-induced HMGB1 release: dose-dependently attenuated
